Test results taken from patent US20130136748A1 (Ablynx, published 2013).

T1: cHER3ECD (Maccaca fascicularis HER3 extracellular domain) (Macaca fascicularis, UniProt P21860 20-643 (human entry))
T1 construct: also called cyno HER3ECD; cyno HER3-ECD
T1 chain: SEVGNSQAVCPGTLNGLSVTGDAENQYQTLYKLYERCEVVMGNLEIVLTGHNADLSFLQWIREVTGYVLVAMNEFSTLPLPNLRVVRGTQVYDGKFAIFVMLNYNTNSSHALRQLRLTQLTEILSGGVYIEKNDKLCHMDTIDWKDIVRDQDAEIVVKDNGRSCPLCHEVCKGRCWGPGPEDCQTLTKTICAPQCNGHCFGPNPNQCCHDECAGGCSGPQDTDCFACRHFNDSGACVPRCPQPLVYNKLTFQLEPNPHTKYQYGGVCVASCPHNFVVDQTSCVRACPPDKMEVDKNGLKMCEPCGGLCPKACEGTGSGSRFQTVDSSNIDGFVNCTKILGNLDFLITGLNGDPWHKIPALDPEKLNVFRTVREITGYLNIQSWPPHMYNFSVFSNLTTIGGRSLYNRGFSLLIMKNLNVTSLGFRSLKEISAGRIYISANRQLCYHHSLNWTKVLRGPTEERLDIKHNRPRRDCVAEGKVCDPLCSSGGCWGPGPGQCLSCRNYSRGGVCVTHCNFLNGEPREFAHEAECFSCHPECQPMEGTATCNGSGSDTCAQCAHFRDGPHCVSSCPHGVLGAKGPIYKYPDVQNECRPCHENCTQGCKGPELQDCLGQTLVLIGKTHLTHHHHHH


Experiments:
[1] = molecular target: T2, human HER2 (human, UniProt P04626 23-1255); experiment: FACS CHO-HER2, 222 nM
T2 construct: also called hHER2

[2] = molecular target: T3, human HER4 (human, UniProt Q15303 26-1308); experiment: FACS CHO-HER4, 222 nM
[3] = molecular target: T4, hHER3 full length (human, UniProt P21860 20-1342); experiment: FACS, 400 nM, competitor 23F05-biotin
T4 construct: On transfected CHO, CHO HER2/HER3, CHO EGFR/HER3 or CHO Flp-In cells; endogenous HER3 of MCF-7 and MDA-MB468 cells in the signalling assays; also called human HER3

[4] = molecular target: T3, human HER4; experiment: FACS, CHO-HER4
[5] = molecular target: T1, cHER3ECD (Maccaca fascicularis HER3 …); experiment: ELISA, coated cHER3-ECD
[6] = molecular target: T2, human HER2; experiment: FACS CHO-HER2, 667 nM
[7] = molecular target: T4, hHER3 full length; experiment: cell-based or functional assay
[8] = molecular target: T5, human HER1 (human, UniProt P00533 25-1210); experiment: FACS CHO-HER1, 2000 nM
T5 construct: also called EGFR; ErbB1

[9] = molecular target: T4, hHER3 full length; experiment: FACS, 400 nM, competitor 04C07-biotin
[10] = molecular target: T4, hHER3 full length; experiment: FACS, 400 nM, competitor 17C08-biotin
[11] = molecular target: T5, human HER1; experiment: FACS CHO-HER1, 667 nM
[12] = molecular target: T3, human HER4; experiment: FACS CHO-HER4, 667 nM
[13] = molecular target: T5, human HER1; experiment: FACS CHO-HER1, 222 nM
[14] = molecular target: T2, human HER2; experiment: FACS, CHO-HER2
[15] = molecular target: T3, human HER4; experiment: FACS CHO-HER4, 2000 nM
[16] = molecular target: T5, human HER1; experiment: FACS, CHO-HER1
[17] = molecular target: T4, hHER3 full length; experiment: cell-based or functional assay; remark: listed apart in the source
[18] = molecular target: T4, hHER3 full length; experiment: FACS, 400 nM, competitor 18E08-biotin
[19] = molecular target: T4, hHER3 full length; experiment: FACS, 400 nM, competitor 04F10-biotin
[20] = molecular target: T2, human HER2; experiment: FACS CHO-HER2, 2000 nM
[21] = molecular target: T6, hHER3 ECD (human HER3 extracellular domain) (human, UniProt P21860 20-643); experiment: ELISA, coated hHER3-ECD
T6 construct: also called recombinant HER3-ECD

[22] = molecular target: T4, hHER3 full length; experiment: FACS, 400 nM, competitor 21B02-biotin

T3 sequence (Q15303 26-1308 limits assumed): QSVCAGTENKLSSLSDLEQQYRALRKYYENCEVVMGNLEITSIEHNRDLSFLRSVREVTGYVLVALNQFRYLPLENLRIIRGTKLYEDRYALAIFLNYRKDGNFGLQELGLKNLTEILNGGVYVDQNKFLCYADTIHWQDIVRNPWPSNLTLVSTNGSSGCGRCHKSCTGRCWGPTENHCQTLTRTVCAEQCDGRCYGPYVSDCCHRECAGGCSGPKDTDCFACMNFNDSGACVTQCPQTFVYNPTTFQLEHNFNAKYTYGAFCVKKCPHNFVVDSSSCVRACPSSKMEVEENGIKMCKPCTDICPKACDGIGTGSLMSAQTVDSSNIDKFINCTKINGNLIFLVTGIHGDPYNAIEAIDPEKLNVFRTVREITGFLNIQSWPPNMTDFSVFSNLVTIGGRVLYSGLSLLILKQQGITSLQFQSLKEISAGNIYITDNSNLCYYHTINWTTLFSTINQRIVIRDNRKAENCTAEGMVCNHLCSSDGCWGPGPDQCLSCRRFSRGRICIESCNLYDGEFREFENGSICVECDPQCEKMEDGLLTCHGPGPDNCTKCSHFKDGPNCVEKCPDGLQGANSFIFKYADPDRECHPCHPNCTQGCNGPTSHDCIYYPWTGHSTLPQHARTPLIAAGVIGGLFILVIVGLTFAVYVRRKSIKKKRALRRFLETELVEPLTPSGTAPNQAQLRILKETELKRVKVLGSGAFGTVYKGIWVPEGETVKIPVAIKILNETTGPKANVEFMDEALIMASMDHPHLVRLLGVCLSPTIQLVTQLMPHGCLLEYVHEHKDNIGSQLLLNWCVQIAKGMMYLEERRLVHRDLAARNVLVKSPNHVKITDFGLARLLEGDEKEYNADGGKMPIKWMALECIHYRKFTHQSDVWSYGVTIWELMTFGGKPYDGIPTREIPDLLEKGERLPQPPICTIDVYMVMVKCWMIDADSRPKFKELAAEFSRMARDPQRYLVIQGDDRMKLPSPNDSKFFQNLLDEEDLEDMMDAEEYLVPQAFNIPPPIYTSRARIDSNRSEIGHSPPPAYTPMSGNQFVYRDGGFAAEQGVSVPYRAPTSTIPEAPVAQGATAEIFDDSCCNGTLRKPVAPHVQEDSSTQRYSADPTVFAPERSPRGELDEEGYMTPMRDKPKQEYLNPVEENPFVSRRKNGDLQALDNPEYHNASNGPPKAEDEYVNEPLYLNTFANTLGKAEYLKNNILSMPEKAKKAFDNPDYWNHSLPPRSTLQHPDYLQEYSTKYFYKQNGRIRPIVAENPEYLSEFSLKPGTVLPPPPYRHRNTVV

MCF [1]	MCF [2]	% competition [3]	binding result [4]	EC50 [5]	MCF [6]	IC50, HRG1-β1 induced pHER3, MCF-7 [7]	IC50, HRG1-β1 induced pHER3, MDA-MB468 [7]	MCF [8]	% competition [9]	% competition [10]	MCF [11]	MCF [12]	MCF [13]	binding result [14]	MCF [15]	binding result [16]	IC50, HRG1-β1 induced pAkt, MCF-7 [17]	% competition [18]	% competition [19]	Binder	other results
84	96	0%	no binding (tested: 2000 nM)	0.93 nM	79	1.07e-09 M	6.68e-09 M	72	100%	15%	92	103	75	no binding (tested: 2000 nM)	105	no binding (tested: 2000 nM)	1.09e-08 M	26%	0%	04C07 (VHH, also called HER3MS04C07; HER3MS004C07) VHH: EVQLVESGGGLVQAGGSLRLSCAASGFTFSSYPMSWVRQAPGKGPAWVSTVSPGGITTSYADSVKGRFTISRDNAKNTLYLQMNSLKPEDTAVYYCLRDLNNRGQGTQVTVSS	IC50, HRG1-β1 induced pERK1/2, MCF-7 [17]: 2.79e-08 M; MCF [20]: 154; EC50 [21]: 0.86 nM; % competition [22]: 2%
109	57	0%	no binding (tested: 2000 nM)	0.64 nM	117	1.03e-08 M	7.03e-09 M	97	0%	74%	87	56	101	no binding (tested: 2000 nM)	124	no binding (tested: 2000 nM)	1.38e-07 M	97%	0%	18G11 (VHH, c-myc, His6-tagged form as expressed; also called HER3MS18G11; HER3MS018G11) VHH: EVQLVESGGGLVQPGGSLRLSCAASGTLFKINAMGWYRQAPGKRRELVALITSSDTTDYAESVEGRFTISRDNTWNAVYLQMNSLKPEDTAVYYCHSDHYSMGVPEKRVIMYGQGTQVTVSS	inhibition of HRG1-β1 induced pERK1/2, MCF-7 [17]: < 50 % inhibition; MCF [20]: 65; EC50 [21]: 0.72 nM; % competition [22]: 0%
160	210	17%	no binding (tested: 2000 nM)	0.59 nM	418	8.98e-08 M	5.38e-08 M	58	3%	97%	47	91	62	no binding (tested: 2000 nM)	254	no binding (tested: 2000 nM)	7.24e-07 M	98%	77%	17C08 (VHH, also called 17C8) VHH: EVQLVESGGGLMQAGDSLRLSCAASGRAFSSYALGWFRRAPGKERECVAATDRLGDNTYFPDSVKGRFTISRDNAKNTLYLQMNNLKPEDTAVYYCAAGAVRYGVSTSPMNYNYWGQGTQVTVSS	inhibition of HRG1-β1 induced pERK1/2, MCF-7 [17]: < 50 % inhibition; MCF [20]: 1220; EC50 [21]: 0.62 nM; % competition [22]: 16%
